Reference: the RNAGym collection of RNA variant scans (doi:10.1093/molbev/msab373)

B1: Azoarcus group I ribozyme (parent)
chain: GUGCCUUGCGCCGGGAAACCACGCAAGGGAUGGUGUCAAAUUCGGCGAAACCUAAGCGCCCGCCCGGGCGUAUGGCAACGCCGAGCCAAGCUUCGGCGCCUGCGCCGAUGAAGGUGUAGAGACUAGACGGCACCCACCUAAGGCAAACGCUAUGGUGAAGGCAUAGUCCAGGGAGUGGCGAAAGUCACACAAACCGG

Variants of: B1
Test: reverse-splicing fitness (ratio to wild type); higher = more active; in vitro selection; Mg2+ level not given
Procedure, shortened: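 An in vitro group I ribozyme library with randomized positions was T7-transcribed and gel-purified. In triplicate, 10 pmol RNA in EPPS pH 7.5 was reacted with 50 pmoles of a 30-nt RNA substrate for 1 h at 37 °C across several added MgCl2 levels (1–48 mM), then stopped with EDTA. Products were reverse transcribed from a substrate-complementary primer, PCR-amplified and sequenced (HiSeq 4000). Fitness is a variant's read proportion after selection over that before, normalised to wild type.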

Q: With A111U C169U U176A as the variant, how does the reverse-splicing fitness read?
A: 0.0279

Q: With A111U C169U U176C as the variant, how does the reverse-splicing fitness read?
A: 0.0365

Q: For A111U C169U U176G, which reverse-splicing fitness is on record?
A: 0.00752

Q: Which reverse-splicing fitness does the source give for A111U U176A here?
A: 0.823

Q: For A111U U176C, which reverse-splicing fitness is on record?
A: 0.793

Q: With A111U U176G as the variant, how does the reverse-splicing fitness read?
A: 0.288

Q: Which reverse-splicing fitness does the source give for A120C here?
A: 0.9

Q: With A120C A145C as the variant, how does the reverse-splicing fitness read?
A: 0.783

Q: For A120C A145C C150A, which reverse-splicing fitness is on record?
A: 0.128

Q: For A120C A145C C150A C169A, which reverse-splicing fitness is on record?
A: 0.00701

Q: With A120C A145C C150A C169A U176A as the variant, how does the reverse-splicing fitness read?
A: 0.00897

Q: For A120C A145C C150A C169A U176C, which reverse-splicing fitness is on record?
A: 0.00472

Q: Which reverse-splicing fitness does the source give for A120C A145C C150A C169A U176G here?
A: 0.00372

Q: Which reverse-splicing fitness does the source give for A120C A145C C150A C169G here?
A: 0.00626

Q: With A120C A145C C150A C169G U176A as the variant, how does the reverse-splicing fitness read?
A: 0.0166

Q: Which reverse-splicing fitness does the source give for A120C A145C C150A C169G U176C here?
A: 0.00769

Q: With A120C A145C C150A C169G U176G as the variant, how does the reverse-splicing fitness read?
A: 0.00492

Q: Which reverse-splicing fitness does the source give for A120C A145C C150A C169U here?
A: 0.0518

Q: Which reverse-splicing fitness does the source give for A120C A145C C150A C169U U176A here?
A: 0.0342

Q: For A120C A145C C150A C169U U176C, which reverse-splicing fitness is on record?
A: 0.032

Q: For A120C A145C C150A C169U U176G, which reverse-splicing fitness is on record?
A: 0.00561

Q: Which reverse-splicing fitness does the source give for A120C A145C C150A U176A here?
A: 0.112

Q: Which reverse-splicing fitness does the source give for A120C A145C C150A U176C here?
A: 0.102

Q: With A120C A145C C150A U176G as the variant, how does the reverse-splicing fitness read?
A: 0.0481

Q: With A120C A145C C150G as the variant, how does the reverse-splicing fitness read?
A: 0.279

Q: With A120C A145C C150G C169A as the variant, how does the reverse-splicing fitness read?
A: 0.0111

Q: With A120C A145C C150G C169A U176A as the variant, how does the reverse-splicing fitness read?
A: 0.00776

Q: Which reverse-splicing fitness does the source give for A120C A145C C150G C169A U176C here?
A: 0.00596

Q: For A120C A145C C150G C169A U176G, which reverse-splicing fitness is on record?
A: 0.00424

Q: For A120C A145C C150G C169G, which reverse-splicing fitness is on record?
A: 0.00786

Q: With A120C A145C C150G C169G U176A as the variant, how does the reverse-splicing fitness read?
A: 0.00848

Q: For A120C A145C C150G C169G U176C, which reverse-splicing fitness is on record?
A: 0.00582

Q: For A120C A145C C150G C169G U176G, which reverse-splicing fitness is on record?
A: 0.00352

Q: With A120C A145C C150G C169U as the variant, how does the reverse-splicing fitness read?
A: 0.117

Q: With A120C A145C C150G C169U U176A as the variant, how does the reverse-splicing fitness read?
A: 0.0183

Q: For A120C A145C C150G C169U U176C, which reverse-splicing fitness is on record?
A: 0.0503

Q: Which reverse-splicing fitness does the source give for A120C A145C C150G C169U U176G here?
A: 0.0043

Q: For A120C A145C C150G U176A, which reverse-splicing fitness is on record?
A: 0.155

Q: Which reverse-splicing fitness does the source give for A120C A145C C150G U176C here?
A: 0.174

Q: With A120C A145C C150G U176G as the variant, how does the reverse-splicing fitness read?
A: 0.0256

Q: Which reverse-splicing fitness does the source give for A120C A145C C150U here?
A: 0.46

Q: Which reverse-splicing fitness does the source give for A120C A145C C150U C169A here?
A: 0.0127

Q: With A120C A145C C150U C169A U176A as the variant, how does the reverse-splicing fitness read?
A: 0.0105

Q: Which reverse-splicing fitness does the source give for A120C A145C C150U C169A U176C here?
A: 0.008

Q: For A120C A145C C150U C169A U176G, which reverse-splicing fitness is on record?
A: 0.00465

Q: For A120C A145C C150U C169G, which reverse-splicing fitness is on record?
A: 0.0109

Q: For A120C A145C C150U C169G U176A, which reverse-splicing fitness is on record?
A: 0.0156

Q: For A120C A145C C150U C169G U176C, which reverse-splicing fitness is on record?
A: 0.00823

Q: For A120C A145C C150U C169G U176G, which reverse-splicing fitness is on record?
A: 0.00381

Q: Which reverse-splicing fitness does the source give for A120C A145C C150U C169U here?
A: 0.194

Q: With A120C A145C C150U C169U U176A as the variant, how does the reverse-splicing fitness read?
A: 0.0792

Q: With A120C A145C C150U C169U U176C as the variant, how does the reverse-splicing fitness read?
A: 0.0863

Q: Which reverse-splicing fitness does the source give for A120C A145C C150U C169U U176G here?
A: 0.00874

Q: With A120C A145C C150U U176A as the variant, how does the reverse-splicing fitness read?
A: 0.398

Q: With A120C A145C C150U U176C as the variant, how does the reverse-splicing fitness read?
A: 0.317

Q: For A120C A145C C150U U176G, which reverse-splicing fitness is on record?
A: 0.137

Q: For A120C A145C C169A, which reverse-splicing fitness is on record?
A: 0.0312

Q: For A120C A145C C169A U176A, which reverse-splicing fitness is on record?
A: 0.00918

Q: With A120C A145C C169A U176C as the variant, how does the reverse-splicing fitness read?
A: 0.00838

Q: For A120C A145C C169A U176G, which reverse-splicing fitness is on record?
A: 0.00331

Q: For A120C A145C C169G, which reverse-splicing fitness is on record?
A: 0.0239

Q: Which reverse-splicing fitness does the source give for A120C A145C C169G U176A here?
A: 0.0163

Q: Which reverse-splicing fitness does the source give for A120C A145C C169G U176C here?
A: 0.0103

Q: Which reverse-splicing fitness does the source give for A120C A145C C169G U176G here?
A: 0.00338

Q: With A120C A145C C169U as the variant, how does the reverse-splicing fitness read?
A: 0.431

Q: Which reverse-splicing fitness does the source give for A120C A145C C169U U176A here?
A: 0.143

Q: For A120C A145C C169U U176C, which reverse-splicing fitness is on record?
A: 0.177

Q: With A120C A145C C169U U176G as the variant, how does the reverse-splicing fitness read?
A: 0.0155

Q: For A120C A145C U176A, which reverse-splicing fitness is on record?
A: 0.693

Q: For A120C A145C U176C, which reverse-splicing fitness is on record?
A: 0.574

Q: Which reverse-splicing fitness does the source give for A120C A145C U176G here?
A: 0.266

Q: For A120C A145G, which reverse-splicing fitness is on record?
A: 0.772

Q: With A120C A145G C150A as the variant, how does the reverse-splicing fitness read?
A: 0.32

Q: Which reverse-splicing fitness does the source give for A120C A145G C150A C169A here?
A: 0.0153

Q: With A120C A145G C150A C169A U176A as the variant, how does the reverse-splicing fitness read?
A: 0.0168

Q: For A120C A145G C150A C169A U176C, which reverse-splicing fitness is on record?
A: 0.0217

Q: With A120C A145G C150A C169A U176G as the variant, how does the reverse-splicing fitness read?
A: 0.00483

Q: For A120C A145G C150A C169G, which reverse-splicing fitness is on record?
A: 0.0107

Q: With A120C A145G C150A C169G U176A as the variant, how does the reverse-splicing fitness read?
A: 0.017

Q: With A120C A145G C150A C169G U176C as the variant, how does the reverse-splicing fitness read?
A: 0.0234

Q: With A120C A145G C150A C169G U176G as the variant, how does the reverse-splicing fitness read?
A: 0.00453

Q: With A120C A145G C150A C169U as the variant, how does the reverse-splicing fitness read?
A: 0.134

Q: Which reverse-splicing fitness does the source give for A120C A145G C150A C169U U176A here?
A: 0.0678

Q: Which reverse-splicing fitness does the source give for A120C A145G C150A C169U U176C here?
A: 0.0824
